In the domain aggregation screens of Martell et al. (2025):

Assay: soluble fraction after stress (log2 fold change); higher = more stays soluble; pooled small domains, quantitative proteomics
Conditions: stress: 75 degC
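Note: 20 min heating vs room temperature control held 20 min.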

| Sequence | soluble fraction (log2) |
| --- | --- |
| HMELPMGTQLPPERELAQQMQVSRAVVNGGLAELAQQGFLEVRPRQGTFVADYRRKGNLSTLIAIMEY | 0.257 |
| HMELPPLQPGQPIDGRVEQQIRAGYYVVSVRGRGYEFQLPESARPGDLLRMVYLNDHPRLTFALLRIDNAN | -1.5 |
| HMELPVAVPHTELSPEALRGVVESFVLREGTDYGERDVPFEAKVAQVIRQLERGEARIMFDPVTQSVQIVT | 0.162 |
| HMELRSPMPGLIIEIPVSKGDIIKKDQSLIILEAMKMENVLTSPINGKIADIKVNVQDTVEKNNLLITFEN | -0.0769 |
| HMELSESLENYLVVIYEAHLRNEIARIKDMTASLSVKHTSAIDAIKKLEDLGIVNYEKRGFVKLTQSGIEK | 0.00204 |
| HMELSPAELGERLKVARETANVTQDAGAKAAGIARTTLVAIEKGQRSARIDELQTLSRRYGVSVNSLLRR | -0.154 |
| HMELSSRQAMIVDIVRKYEPITSEQIADKLNLTRSALRPDLAVLTMIGILEARPRVGYFFTGK | -1.91 |
| HMELSTQERIQILLEILNQREIISFSQTLRKKEGKKGVVVTFLASLELAKDGYVTLVQNKSDQIYLRSN | -0.803 |
| HMELTDSLTENAKKLYSVLTTEPRHIDDLSEEAKLSSADTLAALTELELYSLVALSEGKHYYK | -0.349 |
| HMELTKAELEVMQILWKLKKAFVGDILDRMVEPKPAYNTVSTVVRLLEKKGVVGHESFGKSHRYYPL | -3.66 |
| HMELTVPDFTNMSLEDAINLAEKRDVRLEVTDSVFVKRLGRGFIYSQNPVAGSKVKKGRRILITINAIN | -3.63 |
| HMEMDPKELGRQVLAKRKEKGWSQEQLGKMAEISRNYVSQIERGEADSISIKIINRLAIALGVSPSDLGE | -0.292 |
| HMEMKHKNSQIFQAIKLKHMGFTPTQISEELRVSRTTINHWLTKAQLKDVKWEDIRENSADELVKLLFG | -1.33 |
| HMEMNPLDIQNKAAELAQQWLQLPVGERQKQMAAVRTSNPNLHAMAKQKMEEMRSQAESQGRQSLSQP | 0.324 |
| HMEMTDKEEELMRIFWNHGPMFVREIVELYPEPRPHFNTLSTFVRNLEQKGFVSHEAVGGSFRYYAV | -1.45 |
| HMEMTEDEITKQFDAMEREAKKEIDTGADKRAFMYGVSRTAAGMAGKNPKYARFITDKAKEVIENIAKYK | 0.298 |
| HMENAEALLKKLSGVLSDYEYKMLMLYADGKTPRRIAQETGQSAKSVSNALFRARTKLKELYEDQ | -0.66 |
| HMENEIVMPVQINGKKRGDLTIARDADQASIQKAVLELDFVKAALNGGSPKKVIVVPQRIVNVV | 0.338 |
| HMENFKVFMKAVQEVSPVPVRFDEISSGAKGYYSNTEKEIVIQNGMSESQTMKTGIHEVTHAMLHDRDF | 0.234 |
| HMENFYGYEIINPEAKKFFITMGVNRYALEQWIKNKSEYGLIIVKSLYPFDPRLKLFLEKNRERIQNLIF | -0.526 |
| HMENKLIELTLSLDKSERLDKILTQELSHTRSVIQQWLKSGFVSVNGEIVKANYKAKDGDHVTIQIE | -0.594 |
| HMENKTGEVTVREDSALTLRQGPGTNYEKVGQAYRGDRVDVLEEQNGWYKVKTYDGKEAWASSSYISIV | 0.861 |
| HMENMETSDIVARYSNMPGGIIEAFHEIVDRHGFLSQEAIIEAARGFGISVAEAYGVATFYSMFS | -0.342 |
| HMENMRLILASNLRRIREERRLSLNKVSELTGVSKSMLGQIERGESNPTLQTVWKIANGLRVSLTDLTEVP | -2.66 |
| HMENRILLSEDSLKHLAQDIPIDIIEKLSVLKDQIYHRYDDFNSIVQGLLGGENYLKYKDNILSFVEQ | 0.424 |
| HMENSMDTDWDVSGVDPSQYRLLFSTLGAIAGVKDVGLNPDGLKIIHTPEALPAIKQAFDANNLKLKMRTN | -0.0945 |
| HMENSPLTHREAEVMRLMSEGKSNRAISEHLVISEKTVKNHVSSILQKMSVDDRTQAVLQAIKNGWVD | 0.281 |

| Sequence | soluble fraction (log2) |
| --- | --- |
| HMENTGFKDKKGNYIFDGDIVKDILGNIMKVEFKHFKWQLIPLNKTAFNMPMVDWLDLETETLNAEIIGN | -2.07 |
| HMENTIESLLKAKGFNDIIVTVSDKQVDVVVSDKEIADNKRAQIEDVIKRKTGLEASAITITPA | 0.127 |
| HMENVLFVNVLSMTVRELAEMMKIPVNKIIQDSFSKGIMMNPNQRLEYDNFAELAKKYGITVKI | -1.24 |
| HMENVMLRNFAIQATEAGVIKLLEDQRTFVWGSNNKKFMTVPFDEHPYSAMAAFFKTDEGLEIYKSIEKKF | -1.97 |
| HMENYQIETFVKFIEESTGEDGVAFEDLFQNFTSRPAVITMFLALLEALRRNSIRIFQKEEFSQILIYPK | -0.0302 |
| HMENYTYKYATSANVNIREEPNTDSTILGKTLLNTEFQVVEDVDGWSKITTEAGYAYIKSEYLSDTE | 0.502 |
| HMEPDEQAVKALIAEIDKLSKEKLTLKHEKKLKELREIYDDFTEEEKKLVTNYDILVKMEKRMEVLKKQEG | 0.127 |
| HMEPDEYTVRQAFMKFDVGGEGRVPRDKLKALLETLGLELSAQQVRESEEQLDPEGTGFTSYGDFLMWWN | -0.793 |
| HMEPEVSNTYEKVLGMHHFSSTRSHQLHDLVRQANALELSLGEIESIAQSAKDGAQVISDIKHWMEPNRQ | 0.381 |
| HMEPEWVINTDGSNLNEILAIDEVDSRKTFSNDLQEVYRTFGIEAARQILVQEIDAVIESSGA | 0.082 |
| HMEPFEQLLDRITSQTGKEPEEVVARMNELITERFDGNIRPEAALVIVAKRDNIQFMDLLDQLKQALL | -0.427 |
| HMEPIAFDNMHNRGIKGTNDWTQYEITLPFSAEAKKIFVAGLLVGKGKAWFDKFEVFLDGKNITDVAQI | 0.0509 |
| HMEPPPSYSALLKQISSGKVKELQLVPARREVIVTYPDGRSATVAILANDQQILRTAEAAGTPLLVK | 0.189 |
| HMEPQLVKSFDVQTELTYDQFLSKYPESHTLGRLLVQPEPIPFEPYKNIPGITPEKLLALHAKHLEAR | 0.107 |
| HMEPQSRTAYRLIEAMIVTHELPPGSRISEASLSAKLGIGRTPIREALQRLSFEGTVKIVPRSGAFVSEI | -2.78 |
| HMEPREALDGLISERGETYASISRLLGRNSAYIQQFIKRGSPARLDQSDIALLALHFDVPVEMLGGKE | -0.588 |
| HMEPTIGTATVTSGSRLNMRSAKSTSASVVTRIPSGATVGVISYASDWSKVTYNGYTGYVSSPYISMNG | -1.19 |
| HMEPVIELGDRTLPIEITRHRRARRLTLRLAADGSAVRITLPHWARSAEATAFAHARRDWLAAQLAK | 0.181 |
| HMEPVTETVYAMDTVNIRAAADQTSEKIGSVTVGTALTRTGTDGDWSIIDYNGTTGYVKSEFLSNTAPEV | 0.253 |
| HMEQLIIQEELSGKRLDQLVSLLFPSLTRAHAQKLIKEGAVLVNEKPRKPAYAVMTGELLTVELPEPE | -0.167 |
| HMEQNHYEVLGVSRDAIPEEIRKAYFEYARKLHPDANPDPGAAEQFMRIQTAYDVLSNPDRRHEYDGLLPP | 0.00418 |
| HMEQRREEFILLAKELLEKELRKQNLEVHENLKPDVLNDVAKRLGMVSMDDLLAAVGDGKITPGTVVSKIV | -0.0625 |
| HMEQVLNVAVRRGELIMSSAAEQTVRIYSSAGSMVWQGKVSASDVTVELPSGVYVVNGKKVV | -1.25 |
| HMEQYFEDEELNDKFLEFLAMRKRVRKPVQTDRGMKMLLTSLHKLSGGDVGLMKQIIDQSLDNEWKKFVA | -1.14 |
| HMERDIATKHEVNRTVEAYSDIVKTLNLPSHKINLVEISFFNILKRSKPSPRENSILLGLAQKIKLHLEKK | -0.737 |
| HMERLKYSQVVDLFKGEQVKSFVLDESNQLKMELQDGSTVSYKLRSFEQFYLDLSDTVKEQKESGIITDYD | -0.685 |
| HMERPPHELLSDREYQTMVMIASGRTLTQIAEEMSLSPKTVSVYRARLLEKMKLKNNAELTHYALKHKLV | -1.89 |
